This note sets out measurements from publication PMC3518219 (The Journal of Cell Biology, 2012).

The test has as its target T1, GST-RadilPDZ (human, UniProt Q96JH8 870-1075).
T1 sequence (looked up): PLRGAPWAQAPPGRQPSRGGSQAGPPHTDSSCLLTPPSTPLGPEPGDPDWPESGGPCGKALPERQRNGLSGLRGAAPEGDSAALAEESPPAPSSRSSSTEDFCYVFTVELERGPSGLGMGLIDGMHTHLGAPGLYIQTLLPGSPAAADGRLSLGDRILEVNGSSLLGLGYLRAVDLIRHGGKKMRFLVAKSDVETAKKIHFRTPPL
Briefly: pull-down.

B1: Flag-KIF14-ctail-IQWV (domain or fragment, human, UniProt Q15058 1483-1648, looked up)
chain: VQEENFEYQDFKRMVNRAPEFLKLKHCLEKAIEIIISALKGCHSDINLLQTCVESIRNLASDFYSDFSVPSTSVGSYESRVTHIVHQELESLAKSLLFCFESEESPDLLKPWETYNQNTKEEHQQSKSSGIDGSKNKGVPKRVYELHGSSPAVSSEECTPSRIQWV
For B1, the binding result was “binds”.
